# Numbering of substitutions follows the chain as printed.
# B1: 4D7 IgG (antibody, V domains shown, not shown: a dimerising Fc or GST)
# VH: DVQLKHSGPELVKPGASMKISCKASGYSFTGYTMNWVKQSHGKNLEWIGLINPYTGGTNYNQKFKGKAKLTVDKSSSTAFMELLSLTSEDSAVYYCARDGNLDYWGQGTTLTVSS
# VL: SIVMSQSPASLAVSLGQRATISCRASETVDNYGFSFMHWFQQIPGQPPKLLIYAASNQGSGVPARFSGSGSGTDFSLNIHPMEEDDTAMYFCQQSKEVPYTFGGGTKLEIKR
# notes: mouse monoclonal IgG; also called Mab 4D7
# B2: 16E5 IgG (antibody, V domains shown, not shown: a dimerising Fc or GST)
# VH: DVQLVQSGPELVKPGASVKMSCKASGYSFTGYNMHWVKQSHGKSLEWIGYIDPYNGATSYNQKFEDKATLTVDKSSSTAYMQLNSLTSEDSAVYYCARRWDWDPYAMDYWGQGTSVTVSS
# VL: DILLTQSPAILSVSPGERVSFSCRASQSIGTSIHWYQQRTNGSPRLLIKYASESISGIFSRFSGSGSGTDFTLTINSVESEDIADYYCQQSNRWPLTFGAGTKLELKR
# notes: mouse monoclonal IgG; also called MAb 16E5
# B3: 14D3 Fab (Fab, V domains shown)
# VH: B2 VH with L4M, V5Q, S7P, V18L, N55S, D66G
# VL: B2 VL with D1N, L4M, S22A, F59P, T74S, S91T
# notes: Fab of the mouse MAb
# B4: 14D3 IgG (antibody, V domains shown, not shown: a dimerising Fc or GST)
# VH: B2 VH with L4M, V5Q, S7P, V18L, N55S, D66G
# VL: B2 VL with D1N, L4M, S22A, F59P, T74S, S91T
# notes: mouse monoclonal IgG; also called MAb 14D3
# B5: 16E5 Fab (Fab, V domains shown)
# VH: B2 VH
# VL: B2 VL
# notes: papain Fab of the mouse MAb
# B6: 17D2 Fab (Fab, V domains shown)
# VH: B2 VH with L4I, V5Q, G31A, S40T, N55S, N61H, E65K, D66G, Q82R
# VL: B2 VL with D1S, I2V, L3E, L4M, T5S, V19I, E53A, F59P, T74S, R93S
# notes: Fab of the mouse MAb
# B7: 17D2 IgG (antibody, V domains shown, not shown: a dimerising Fc or GST)
# VH: B2 VH with L4I, V5Q, G31A, S40T, N55S, N61H, E65K, D66G, Q82R
# VL: B2 VL with D1S, I2V, L3E, L4M, T5S, V19I, E53A, F59P, T74S, R93S
# notes: mouse monoclonal IgG
# B8: 2B4 IgG (antibody, V domains shown, not shown: a dimerising Fc or GST)
# VH: DVQLQQSGTVLARPGASVRMSCKASGYSFTRYWIHWLKQRPGQGLEWIGAIFPGNRDTSYNQRFKGKAEVTAVTSASTAYLDLSSLTNEDSAVYYCTRWPYYGSIYVNFDYWGQGTTLTVSS
# VL: DIVMTQSPLSLPVSLGDQASISCRTSQNLVHRNGNTYLHWYLQKPGQSPKLLIYKISNRFSGVPDRFSGSGSGTDFTLKISRVEAEDLGVYFCSQGTHVPPTFGGGTKLEIKR
# notes: mouse monoclonal IgG; also called 2B4 MAb
# B9: 3B3 IgG (antibody, V domains shown)
# VH: DVQLQQPGAELVKPGASVKLSCTTSGVNIKDTYMHWMKQRPEQGLEWIGRIDPANGNTKYDPKFRGKATITADTSSNTVYVQLRSLTSEDTAVYYCAYDGYWGQGTLVTVSA
# VL: NIVMTQTPASLAVSLGQRATISCRASESVDSYGNNFMHWYQQKPGQSPRLLIYRASNLESGIPARFSGSGSRTDFTLTTNPVEADDVATYYCQQSHKDPLTFGAGTKLELK
# B10: 3B3 Fab (Fab, V domains shown)
# VH: B9 VH
# VL: NIVMTQTPASLAVSLGQRATISCRASESVDSYGNNFMHWYQQKPGQSPRLLIYRASNLESGIPARFSGSGSRTDFTLTTNPVEADDVATYYCQQSHKDPLTFGAGTKLELKR
# B11: 3C7 IgG (antibody, V domains shown, not shown: a dimerising Fc or GST)
# VH: B1 VH with E46D, T55N, N59S, N61D, K69T, F80Y, N101L, L102M, T110S, L111V
# VL: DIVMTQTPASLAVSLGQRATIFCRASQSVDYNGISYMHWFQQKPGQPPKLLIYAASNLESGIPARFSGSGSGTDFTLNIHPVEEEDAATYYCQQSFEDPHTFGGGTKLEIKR
# notes: mouse monoclonal IgG
# Target: TSH receptor of isolated porcine thyroid cells (porcine, UniProt Q8SPP9 22-764)
# Sequence (Q8SPP9 22-764): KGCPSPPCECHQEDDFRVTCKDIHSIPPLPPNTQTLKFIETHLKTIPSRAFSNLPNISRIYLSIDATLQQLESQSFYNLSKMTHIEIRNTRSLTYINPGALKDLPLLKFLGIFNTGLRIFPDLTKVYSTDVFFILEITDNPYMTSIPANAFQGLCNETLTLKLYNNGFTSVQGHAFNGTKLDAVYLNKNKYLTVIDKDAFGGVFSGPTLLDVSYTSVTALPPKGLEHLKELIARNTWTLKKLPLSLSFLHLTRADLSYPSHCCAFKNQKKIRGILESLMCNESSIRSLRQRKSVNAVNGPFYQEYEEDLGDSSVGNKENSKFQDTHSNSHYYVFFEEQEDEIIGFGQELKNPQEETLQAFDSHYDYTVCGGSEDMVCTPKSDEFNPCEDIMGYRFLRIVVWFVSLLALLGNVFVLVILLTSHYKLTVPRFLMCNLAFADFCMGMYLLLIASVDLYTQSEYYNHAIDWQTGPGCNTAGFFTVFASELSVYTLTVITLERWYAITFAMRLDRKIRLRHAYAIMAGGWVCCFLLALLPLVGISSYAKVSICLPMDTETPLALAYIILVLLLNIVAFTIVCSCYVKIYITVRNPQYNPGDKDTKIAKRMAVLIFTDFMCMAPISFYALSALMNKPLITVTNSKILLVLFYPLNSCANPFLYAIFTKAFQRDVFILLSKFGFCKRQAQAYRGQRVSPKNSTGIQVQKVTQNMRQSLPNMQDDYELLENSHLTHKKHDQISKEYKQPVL
# Assay: cell-based or functional assay
Binder,"Stimulation (%) of cyclic AMP, isolated porcine thyroid cells; 20 µg/ml","Stimulation (%) of cyclic AMP, isolated porcine thyroid cells; 200 µg/ml","Stimulation (%) of cyclic AMP, isolated porcine thyroid cells; 2 µg/ml"
B1,31%,259%,
B2,332%,466%,269%
B3,,648%,
B4,351%,557%,323%
B5,,425%,
B6,,274%,
B7,207%,377%,134%
B8,100%,,116%
B9,37%,34%,
B10,,42%,

# Target: human TSHR expressed on Chinese hamster ovary (CHO) cells (human, UniProt P16473 21-764)
# Sequence (P16473 21-764): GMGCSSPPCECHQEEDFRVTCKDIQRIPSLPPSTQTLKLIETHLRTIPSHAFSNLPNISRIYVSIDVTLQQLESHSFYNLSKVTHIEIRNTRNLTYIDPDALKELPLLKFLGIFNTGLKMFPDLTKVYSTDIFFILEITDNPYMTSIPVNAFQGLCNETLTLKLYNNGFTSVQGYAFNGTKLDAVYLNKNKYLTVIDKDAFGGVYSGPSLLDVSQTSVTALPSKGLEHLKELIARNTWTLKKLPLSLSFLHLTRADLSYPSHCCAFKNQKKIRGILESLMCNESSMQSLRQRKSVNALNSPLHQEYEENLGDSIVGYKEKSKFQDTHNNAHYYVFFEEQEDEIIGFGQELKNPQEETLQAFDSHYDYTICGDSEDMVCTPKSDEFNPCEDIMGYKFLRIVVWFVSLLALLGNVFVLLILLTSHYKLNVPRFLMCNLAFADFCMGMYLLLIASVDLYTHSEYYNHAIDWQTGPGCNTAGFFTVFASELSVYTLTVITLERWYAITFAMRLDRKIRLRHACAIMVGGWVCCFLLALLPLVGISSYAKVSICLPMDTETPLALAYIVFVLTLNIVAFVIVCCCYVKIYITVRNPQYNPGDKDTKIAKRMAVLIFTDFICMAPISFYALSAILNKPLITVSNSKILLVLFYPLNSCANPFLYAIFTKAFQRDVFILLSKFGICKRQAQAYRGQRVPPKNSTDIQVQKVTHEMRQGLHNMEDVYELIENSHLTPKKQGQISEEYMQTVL
# Assay: cell-based or functional assay
row,Binder,"Stimulation (%) of cyclic AMP, CHO cells expressing human TSHR; 20 µg/ml, diluted 1:10"
1,B2,850%
2,B4,908%
3,B8,111%

# Target: T1, TSH receptor (detergent solubilised TSH receptor preparation) (UniProt P16473 21-764, limits assumed)
# T1 construct: In some assays captured or labelled through MAb 4E31 F(ab)2; also called thyrotrophin receptor
# T1 sequence (P16473 21-764 limits assumed): as the sequence (P16473 21-764) above
# Assay: 125I-TSH, TSHR coated tubes; 2 µg/ml
# Procedure: (§1) In particular the MAb 4E31 reactive with the TSHR C terminus (10 μg/mL F(ab)₂ preparation in 0.1 M Na₂CO₃ pH 9.2) was added to plastic tubes (Nune Maxisorp, 200 μL per tube) and coating allowed to proceed overnight 4° C. After washing and post-coating (10 mg/mL bovine serum albumin) the tubes were washed again with assay buffer (10 mM Tris-HCl pH 7.8, 50 mM NaCl, 1 mg/mL bovine serum albumin, 0.1% Triton X-100). 200 μL of a detergent solubilised TSHR preparation was then added and incubated overnight at 4° C. followed by aspiration and washing steps. Thereafter, 20 μL of “start” buffer (10 mM Tris-HCl pH 7.8, 50 mM NaCl, bovine serum albumin 1 mg/mL, 6 mM NaN₃, 1% Triton X-100) was added to the TSHR coated tubes followed by 100 μL of purified MAb IgG or patient sera and incubated at room temperature for 2 hours with gentle shaking. […] The tubes were then washed twice with 1 mL of assay buffer, aspirated and counted in a gamma counter.
row,Binder,% inhibition of TSH binding
1,B2,73.6%
2,B4,61%
3,B7,73.7%
4,B8,69.9%

# Target: T1, TSH receptor (detergent solubilised TSH …)
# Assay: 125I-TSH, TSHR coated tubes; 20 µg/ml
# Procedure: as §1
row,Binder,% inhibition of TSH binding
1,B2,83.3%
2,B4,76.4%
3,B7,81.3%

# Target: T1, TSH receptor (detergent solubilised TSH …)
# Assay: 125I-TSH, TSHR coated tubes; tested at 10 µg/ml
# Procedure: as §1
row,Binder,% inhibition of TSH binding
1,B3,64%
2,B5,53%
3,B6,45%

# Target: T1, TSH receptor (detergent solubilised TSH …)
# Assay: solubilised TSHR, PEG method; IgG 100 µg/ml; competitor 125I-16E5 Fab
row,Binder,% inhibition of 125I-16E5 Fab binding
1,B1,24.2%
2,B11,17%
3,B2,70.4%
4,B4,67.6%
5,B7,69.2%
